This note sets out measurements from publication PMC7954794, “Protein context shapes the specificity of SH3 domain-mediated interactions in vivo” (Nature Communications, 2021).

In one experiment the test system is Abp1 PPIs. The experiment in a line: DHFR-PCA of Abp1 SH3-swapped baits (Fig. 2B-D, S2C, S2F). The class given is cell-based, Saccharomyces cerevisiae. As to conditions: number of interactions of Abp1 carrying the named SH3; sheet FigS2A-B. The text has this:
Having determined that multiple PPIs require SH3s, we asked whether the latter establish PPI specificity independently from their host proteins by swapping domains (Fig. 2A). Using the second round of genome editing, we individually replaced Abp1 SH3 with the 27 yeast SH3s and 3 human Abp1 orthologs’ SH3s (CTTN, HCLS1, and DBNL, Fig. 2B). The reintroduction of its own SH3 (Abp1SH3 in Abp1) reconstitutes almost perfectly Abp1’s interaction profile (Kendall’s τ = 0.93, Fig. 2B). […] No homologous SH3 domain fully re-establishes the normal Abp1 PPI profile (Fig. 2B and Supplementary Fig. 2C). However, we observe a significant correlation (cophenetic correlation = 0.20, p value = 0.005, Fig. 2C) between the similarity of PPI profiles (Fig. 2B) and the sequence similarity of the SH3s. […] Nonetheless, a subset of SH3-dependent PPIs is only observed with the endogenous domain. For instance, Hua2 and App1, both well-characterized partners of Abp1[14],[18],[19], are only detected when Abp1 contains its own SH3 (WT or swapped via editing). A given SH3 may therefore not be fully replaceable with other paralogous or orthologous domains. This pattern is confirmed by cellular growth phenotypic analyses (Supplementary Fig. 2D, E). PPIs, SH3 sequence similarity, and growth profiles under stress conditions are correlated (Supplementary Fig. 2D, E). This relationship is particularly clear when analyzing growth on media supplemented with hygromycin.
The stuffing of YSC84 SH3 rendered the strain sterile and was therefore not used for this study as the assays require crosses. For genes containing two SH3s (BZZ1 and BEM1), a combination of this first stuffer with a second one ([…]) coding for a highly similar linker ([…]) was used, which allowed targeting each SH3 position independently. The two N-terminal domains of SLA1, which are separated by six nucleotides, were stuffed by a single stuffer. Cells containing pCAS were selected via the G418 resistance cassette from the plasmid on YPD plates (YPD + NAT 100 μg/ml (DHFR F[1,2] selection) + G418 200 µg/mL (Bioshop Canada)). Colonies were randomly selected and grown in YPD media without G418 to allow plasmid loss. The correct insertion of the stuffer was validated by PCR and Sanger sequencing. The SH3-swapped, -shuffled, and -mutated strains were constructed following a second CRISPR–Cas9 editing step with the same procedures. The stuffer sequences were targeted by specific gRNAs (one gRNA per stuffer) and replaced by PCR amplified specific SH3 (with 40 bp homology arms) or libraries of mutated SH3 domains for Deep Mutational Scanning (DMS) with 78 bp flanking homology regions. Validation of the SH3 domain insertions was done as we previously described except for DMS libraries (see below).
The overall DHFR-PCA pipeline is based on Tarassov et al.[43] and the procedures have also been published as a visualized protocol. The screens were performed with robotically manipulated pin tools (BM5-SC1, S&P Robotics Inc.). First, the preys were cherry-picked from 96-well plates to omnitrays in a 384 format on YPD + HPH solid media. Plates were then combined into the 1536 format on YPD + HPH. The array was constituted of 575 preys previously shown to interact physically with at least one SH3-containing protein as reported in BioGRID V3.4.16 along with 40 negative controls. The prey array comprised a border of control strains of two rows and two columns corresponding to the PPI between LSM8-DHFR F[1,2] and CDC39-DHFR F[3]. This double border was used to remove border effects. Preys are present in duplicate at a randomized position in the 1536 array (except for YAL041W which is present four times per array). Baits were crossed with two prey plates, resulting in four independent bait–prey tests for each PPI. Baits were grown in liquid YPD + NAT and then transferred on solid YPD + NAT omnitrays. They were then replicated on YPD + NAT omnitrays in 1536 array format. […]

The next experiment concerns Abp1 (1xFLAG). Briefly: Western blot expression level of Abp1 SH3-swapped baits (Fig. S2A-B). The experiment is classed as cell-based, Saccharomyces cerevisiae. More on the design: Flag (2 bands): unit not given here. As to conditions: sheet FigS2A-B; for Ratio Swap/WT Flag: Flag signal relative to Abp1 WT (Abp1-1 to Abp1-4 = 1); for Flag (2 bands): Western blot Flag signal (2 bands), Abp1 WT, SH3-deleted or SH3-swapped. The method, then: Precultures of yeast cells expressing baits fused with the DHFR F[1,2]-FLAG were grown overnight at 30 °C with agitation in synthetic complete medium. The next day, cells were expanded in synthetic complete medium to reach their exponential phase (OD600 of around 1.0), pelleted, and frozen at −80 °C. The equivalent of fifty OD600 of cells was resuspended in ice-cold yeast lysis buffer (10 mM Tris-HCl pH 7.4, 150 mM NaCl, 0.5 mM EDTA (Millipore Sigma), 1% Triton X-100 (Millipore Sigma), and one cOmplete Mini Protease Inhibitor Cocktail (Millipore Sigma) per 10 mL) with […] glass beads (Millipore Sigma) and disrupted at 4 °C by 10 cycles of 2 min vortexing and 2 min cooldown. The equivalent of […] of lysed cells was used for the immunoprecipitation of the bait proteins using FLAG-M2 agarose beads (Millipore Sigma). The beads were incubated with the cell lysates for 120 min at 4 °C with a slow rotation, followed by three washes with the yeast lysis buffer.
Protein extracts and affinity-purified baits from yeast and human lysed cells were migrated on 10% polyacrylamide gels. The separated proteins were then transferred to nitrocellulose membranes. Validation of correct protein loading was done with ponceau staining of the membranes. Before the primary antibody incubations, membranes were blocked in 5% milk. Protein signals were detected on an Amersham Imager 600RGB (GE Healthcare) following the incubation of the membranes with the appropriate HRP-conjugated secondary antibodies and the Clarity Western ECL Substrate (Bio-Rad). The antibodies used in this study are M2-HRP (A8592, Sigma, 1/50,000), rabbit anti-FLAG (F7425, Sigma, 1/1000), PAK (SC-881, Santa Cruz, 1/200), p130cas/BCAR1 (SC-860, Santa Cruz, 1/200), actin (Cell Signaling Technology, 1/2000), anti-mouse HRP (Cell Signaling Technology, 1/10,000) and anti-rabbit HRP (Cell Signaling Technology, 1/10,000). The quantification of the WB signals was performed with the Amersham Imager 600 analysis software (GE Healthcare).
A general note: Immunoblotting shows a protein as a band on a membrane.

B1: Abp1-2 (protein, UniProt P15891 2-592, looked up)
Actin-binding protein: ALEPIDYTTHSREIDAEYLKIVRGSDPDTTWLIISPNAKKEYEPESTGSSFHDFLQLFDETKVQYGLARVSPPGSDVEKIIIIGWCPDSAPLKTRASFAANFAAVANNLFKGYHVQVTARDEDDLDENELLMKISNAAGARYSIQTSSKQQGKASTPPVKKSFTPSKSPAPVSKKEPVKTPSPAPAAKISSRVNDNNDDDDWNEPELKERDFDQAPLKPNQSSYKPIGKIDLQKVIAEEKAKEDPRLVQKPTAAGSKIDPSSDIANLKNESKLKRDSEFNSFLGTTKPPSMTESSLKNDDDKVIKGFRNEKSPAQLWAERKAKQNSGNAETKAEAPKPEVPEDEPEGEPDVKDLKSKFEGLAASEKEEEEMENKFAPPPKKSEPTIISPKPFSKPQEPVKAEEAEQPKTDYKKIGNPLPGMHIEADNEEEPEENDDDWDDDEDEAAQPPLPSRNVASGAPVQKEEPEQEEIAPSLPSRNSIPAPKQEEAPEQAPEEEIEEEAEEAAPQLPSRSSAAPPPPPRRATPEKKPKENPWATAEYDYDAAEDNELTFVENDKIINIEFVDDDWWLGELEKDGSKGLFPSNYVSLGN
With B1, the “Interactions in Abp1” value with Abp1 PPIs was 86. Besides, in the experiment with Abp1 (1xFLAG), the “Ratio Swap/WT Flag” value amounted to 1 and the “Flag (2 bands)” value is 221127.

B2: Boi2 (protein, UniProt P39969 1-1040, looked up)
BEM1-interacting protein 2: MSNDREVPTLSQLNTTVSRDKDVSDTLSPDFDSKGSATGRDGGNFPMYIAINEYFKRMEDELDMKPGDKIKVITDDEEYKDGWYFGRNLRTNEEGLYPVVFTQKITVEKAPTLMRAKSTKRIYSPLTNEDPLLSSTFISENDSNSELPTPQPIETAASISRTANGKIERNLSLKNTMSDIDNALLEFKDDSIGPPDRFINSGRDEEHSITHETILSATDGLDVVESNSKPTTSSSTGFLNGDLENQATLINGIDTTKLNPVEAEFWSPEEITAYFIMEGYDVQSASRFQKHKISGKILLELELVHLKELDINSFGTRFEIFKEIEKIKEAIRTNGRSLNRASKTNNANIYNQLMPPANVDQRASYRGHVRKTSQSLEDLPSQQNFIPTPRNTRNSSASKHRPKSLVFDSQEANANIAPDVQIPQVVEEMAGNENLFVSPRRAPKPPSYPSPAQPPKSPLLNNTRTSPSPAQLYSWQSPTLSFSGPKRTSYIDQYSSSDSNFNSRSALPKNNQGGGKALSPIPSPTRNSVRNEDSEGKLTSSSKRNSVPYYGYAPESSSDRKSSCSSHEEEQFQETMNTFERPTSSIYADGSTIASISNDKLAHEKEGKKKPTRHSSSLSSKSKSDSRRNSSLKRSSSASRTSSFKKSSFMLSPFRQQFTDNAARSSSPEENPITSMPSEKNSSPIVDKKSSKKSRSKRRSVSAKEAEIFTETVKDDKNKRSASEAIKGETLKGKSLRQMTARPVAKKKQTSAFIEGLRSISVKEAMKDADFSGWMSKKGSGAMSTWKTRFFTLHGTRLSYFSSTTDTRERGLIDITAHRVVPAKEDDKLVSLYAASTGKGRYCFKLLPPQPGSKKGLTFTQPRTHYFAVDNKEEMRGWMAALIKTTIDIDTSVPIISSYTTPTVSLSKAQEMLAEAREETKLREQQMLENEEDEDQFLWDQQQLQQQQHDNNQGQADRTISASTQRTSDEDNTISTPNLSSANNTTIGSNGFSSPFLLASGLLSPGVARNSSMRGTEKKGKFSTEEDYFGDNSKHKTDKI
As to B2, the “Interactions in Abp1” value in the experiment with Abp1 PPIs is 62. In addition, in the experiment with Abp1 (1xFLAG), the “Ratio Swap/WT Flag” value stood at 0.9819 and the “Flag (2 bands)” value came to 95048.
